In US20220387578A1 (VANDERBILT UNIVERSITY, published 2022):
Positions count from the first letter of the chain named. In names and notes the source's numbering stands.

B1: rFluA-20 heavy chain mutant Y34A (antibody, V domains shown)
VH: QVQLQESGPGLVKPSETLSLTCSVSGVSVTSDIAYWTWIRQPPGKGLEWIGYIFYNGDTNYNPSLKSRVTMSIDTSKNEFSLRLTSVTAADTAVYFCARGTEDLGYCSSGSCPNHWGQGTLVTVSS
VL: DIQMTQSPSSLSASIGDRVTITCRPSQNIRSFLNWFQHKPGKAPKLLIYAASNLQSGVPSRFSGSGSGTEFTLTIRSLQPEDFATYYCQQSYNTPPTFGQGTKVEIK
B2: rFluA-20 heavy chain mutant T96A (antibody, V domains shown)
VH: B1 VH with A34Y, T101A
VL: B1 VL
B3: rFluA-20 light chain mutant N53A (antibody, V domains shown)
VH: B1 VH with A34Y
VL: B1 VL with N53A
B4: rFluA-20 heavy chain mutant E97A (antibody, V domains shown)
VH: B1 VH with A34Y, E102A
VL: B1 VL
B5: rFluA-20 heavy chain mutant Y100aA (antibody, V domains shown)
VH: B1 VH with A34Y, Y106A
VL: B1 VL

The binders below were run against H3 HA A/Hong Kong/1/1968 (H3N2), recombinant soluble trimer (influenza A virus, UniProt Q91MA7 17-530).

B1 and B2 are within 1.5-fold of each other in EC50: 0.07 µg/mL for the first, 0.1 µg/mL for the second.

B3 and B4 are within 1.5-fold of each other in EC50: 0.06 µg/mL for the first, 0.07 µg/mL for the second.

For B5, the EC50 was 0.07 µg/mL.
